Results from patent US9598479B2, “Nanoparticle-peptide compositions” (Midatech Ltd., priority 2011, dated 2017).
Numbered stars: 1 amine (or outer) side, 2 acyl side, 3 side chain; on linkers, the order of the positions; unused ones are H or OH. Square brackets hold non-standard residues; d marks the D form. Ends that are not written are not given here. Cysteamide = C(CS[*:3])N[*:1]; Mpa = O=C(O)CCS

Key:
[1] = tested on: LK^b cells; test: Flow cytometry measure of […] presentation (25.D1.16 antibody); format: cell-based, mouse; conditions: for processing and presentation of SIINFEKL from GNP, flow cytometric method: LKb cells pulsed 2 h with GNP equivalent to 1, 0.1 or 0.01 ug/mL peptide, FIG. 1A-D
Method: (§1) Next, GNPs were pulsed to the equivalent of 1 ug/mL peptide (Green), 0.1 ug/mL (Blue), or 0.01 ug/mL (Red). After two hours, cells were washed, and subjected to (A-D) flow cytometric labelling with 25.D1.16 (Angel) antibody, or (E) combined with B3Z CTL for overnight co-culture. The next day, cells were lysed and Beta-galactosidase activity was measured.
In order to analyze epitope linkage to nanoparticles, we first optimized a readout assay for the presentation of the epitope released from the nanoparticle. For this purpose, […] (SEQ ID NO: 2) presentation in LK^b cells was evaluated. As mentioned earlier, more than one reagent exists. Of the two methods tested, one is flow cytometry-based, while the other is cell-based. The flow cytometry-based method begins with pulsing LK^b cells with differing amounts of […] (SEQ ID NO: 2) peptide. After allowing enough time for peptide binding to surface K^b molecules, cells were washed and incubated with the 25.D1.16 antibody which is specific to the […]:K^b (SEQ ID NO: 2) complex. Next, the cells were secondarily labelled and subjected to flow cytometry analysis using unpulsed cells as the background reading.
LK^b cells were treated with varying amounts of […] (SEQ ID NO: 2) peptides. […] Cells were then washed two times in PBS and incubated for 30 min on ice with FITC-labeled goat anti-mouse IgG secondary antibody (Caltag Laboratories, Burlingham, Calif.). Finally, cells were washed two times with PBS and resuspended in PBS+0.1% BSA for flow cytometry on a Guava EasyCyte Plus Flow Cytometer (Millipore, Billerica, Mass.) and analyzed using the accompanying software.
(§2) To assay […] (SEQ ID NO: 2) presentation using a flow cytometric or cell-based method, we pulsed LK^b cells in a 15 mL conical at 37° C. for 2 hrs. Following this incubation, cells were washed once with PBS and then subjected to detection using flow cytometry or added to B3Z cells at an effector to target ratio of 1:1.
(§3) […] (SEQ ID NO: 2), an epitope derived from ovalbumin that is presented in the context of the murine MHCI molecule H-2 Kb, was measured using two methods. One method utilized a TCR-like antibody termed 25.D1.16, also referred to as “Angel”, that recognize […] (SEQ ID NO: 2)/MHCI complex. In addition, we assessed presentation using the B3Z, […] (SEQ ID NO: 2) peptide specific CTL hybridoma, which expresses β-galactosidase under the NFAT (CTL signaling molecule) promoter, which upon activation express beta-gal measured by a light emitting substrate.

[2] = tested on: B3Z (OVA peptide specific T cell line); test: B3Z T cell activation (β-galactosidase) measure of antigen presentation; format: cell-based, mouse; conditions: for processing and presentation of SIINFEKL from GNP, CTL-based method: LKb cells pulsed 2 h with GNP equivalent to 1, 0.1 or 0.01 ug/mL peptide, overnight co-culture with B3Z, FIG. 1E
Method: as §1
Another form of epitope-specific antigen presentation is the measurement of T cell activation by the MHCI peptide complex. Here, we used B3Z (OVA peptide specific T cell line), which recognizes […] (SEQ ID NO: 2) the context of K^b. As a convenient measure, this T cell line contains β-galactosidase cloned with the NFAT promoter. Upon peptide recognition and T cell activation, β-galactosidase is expressed and conversion of a detectible substrate serves as an excellent measure of antigen presentation to T cells.
To evaluate this method, we performed a similar experiment as above. LK^b cells were pulsed with […] (SEQ ID NO: 2) peptide, washed, and then co-incubated with B3Z T cell line overnight. The next day, cells were lysed and β-galactosidase was measured using a luminescent substrate. As expected, the resolution of this method was similar to the previous method with the limit of detection at approximately 5 ng/mL.
The […]:Kb-specific T hybridoma (B3Z) (SEQ ID NO: 2) expresses (β-galactosidase upon recognition of peptide-MHC class I complexes and has been described previously (3, 6). T cell hybridomas were maintained in complete RPMI plus 10% FCS and 0.05 mM 2-ME. Activation was measured using the luminescent substrate Galactolight Plus (Applied Biosystems, Foster City, Calif.) according to the manufacturer's instructions. Light intensity was measured using a TopCount NXT plate reader (Perkin Elmer, Waltham, Mass.).
as §2, §3

[3] = Aggregation and solubilisation of nanoparticle preparations; format: physicochemical; conditions: for solubility of aggregates in alkali: 300 mM NaOH; for aggregation of NP after repeat production: 75% methanol in the synthesis stage; for aggregation of NP after production: first production (95% methanol); for solubility of aggregates: water, 10% acetic acid, PBS, DMSO or DMF
Method: The following method was used; 1.5 μmole peptide was dissolved in 2 ml methanol, followed by the addition of 30 μmole GlcC2 in 200 μl methanol, and 116 μl of aqueous gold chloride containing 10 μmole Au. The sample was vortexed for 30 sec, shaken for approximately 5 min and then under rapid vortexing for a total of 30 sec 200 μl of 1M NaBH4 was added, tubes were sealed and then gently shaken for 1.5 h.
Samples were bench spun the supernatant removed and the dark pellet dissolved in 2 ml water, and then transferred to a 10 kDa vivaspin for a total of 4 times 2 ml water washes each of 8 min at 5 Krpm.
Nanoparticles (NPs) were removed from the vivaspins and made up to 500 μl with water, they were then subjected to 15 Krpm bench spin to remove any large aggregates.
NP's 2-5 were produced by a variation using 75% methanol not 95% in the synthesis stage.

Substance | processing and presentation of SIINFEKL from GNP, flow cytometric method [1] | processing and presentation of SIINFEKL from GNP, CTL-based method [2] | solubility of aggregates in alkali [3] | aggregation of NP after repeat production [3] | aggregation of NP after production [3] | solubility of aggregates [3] | further results
GNP 8: gold nanoparticle with GlcC2 ligands and peptide ligand 8, HS(CH2)2-CONH-FLAAYSIINFEKL ([Mpa]FLAAYSIINFEKL; numbers in words are those of the source; also: on gold nanoparticle with GlcC2 ligands) | good processing and presentation | good processing and presentation | – | – | – | – | presentation from preparations lacking free peptide, flow cytometry ([1]; Sephadex G-50 purified new GNP vs old GNP, FIGS. 3C-E): work just as well as those containing peptide; presentation from preparations lacking free peptide, B3Z assay ([2]; Sephadex G-50 purified new GNP vs old GNP, overnight incubation, FIG. 3F): confirmed
NP 3: gold nanoparticle with GlcC2 ligands and peptide ligand 3, FLSIINFEKL-N—(CH2)2-SH (FLSIINFEKL-Cysteamide; also: on gold nanoparticle with GlcC2 ligands) | – | – | total NP solubilisation | formed aggregates | large near complete aggregation | not soluble | –
NP2: gold nanoparticle with GlcC2 ligands and peptide ligand 2, SIINFEKL-N—(CH2)2-SH | – | – | – | ‘normal’ NP | – | – | –
SIINFEKL (listed as Gallus gallus) [reference compound] | – | – | – | – | – | – | lowest pulse concentration at which surface SIINFEKL:K^b complexes were detected ([1]; LK^b cells pulsed with free SIINFEKL peptide, unpulsed cells as background): 5 ng/mL; limit of detection ([2]; LK^b cells pulsed with free SIINFEKL peptide, co-incubated with B3Z overnight, luminescent substrate): approximately 5 ng/mL
GNP 12: gold nanoparticle with GlcC2 ligands and peptide ligand 12, HS—(CH2)10-(CH2OCH2)7-CONH-FLAAYSIINFEKL ({HS‑(CH2)10‑(CH2OCH2)7‑CO}-FLAAYSIINFEKL; also: on gold nanoparticle with GlcC2 ligands) | good processing and presentation | good processing and presentation | – | – | – | – | –
NP 4: gold nanoparticle with GlcC2 ligands and peptide ligand 4, FLAAYSIINFEKL-N—(CH2)2-SH (FLAAYSIINFEKL-Cysteamide; also: on gold nanoparticle with GlcC2 ligands) | – | – | total NP solubilisation | formed aggregates | large near complete aggregation | not soluble | –
